Columns and labels:
HLA-A*02 = HLA-A*02 (Homo sapiens, UniProt P04439, D140Y/D185E/D98H/E176V/E277Q/G131W/G231S/I119V/I121R/I166T/I218V/N151K/N90K/P208A/P217A/Q86G/Q94H/R138H/R169H); assay: MHC binding assay: UV-ligand exchange, beta2m ELISA (peptide exchange yield); details: binding to HLA-A*02, β2m ELISA
Excerpt: (§1) Candidate peptides for T cell based therapies according to the present invention were further tested for their MHC binding capacity (affinity). The individual peptide-MHC complexes were produced by UV-ligand exchange, where a UV-sensitive peptide is cleaved upon UV-irradiation, and exchanged with the peptide of interest as analyzed. Only peptide candidates that can effectively bind and stabilize the peptide-receptive MHC molecules prevent dissociation of the MHC complexes. To determine the yield of the exchange reaction, an ELISA was performed based on the detection of the light chain (β2m) of stabilized MHC complexes. The assay was performed as generally described in Rodenko et al. (Rodenko et al., 2006).
(§2) 96 well MAXISorp plates (NUNC) were coated over night with 2 ug/ml streptavidin in PBS at room temperature, washed 4× and blocked for 1 h at 37° C. in 2% BSA containing blocking buffer. […] Peptide-MHC monomers of the UV-exchange reaction were diluted 100 fold in blocking buffer. Samples were incubated for 1 h at 37° C., washed four times, incubated with 2 ug/ml HRP conjugated anti-βm for 1 h at 37° C., washed again and detected with TMB solution that is stopped with […]. Absorption was measured at 450 nm. Candidate peptides that show a high exchange yield (preferably higher than 50%, most preferred higher than 75%) are generally preferred for a generation and production of antibodies or fragments thereof, and/or T cell receptors or fragments thereof, as they show sufficient avidity to the MHC molecules and prevent dissociation of the MHC complexes.

HLA-A*24 = assay: as above; set-up: species or system human; details: binding to HLA-A*24, β2m ELISA
Excerpt: as §1, §2

| Substance | Peptide exchange (MHC class I binding score, peptide exchange yield) (HLA-A*02) | Peptide exchange (MHC class I binding score, peptide exchange yield) (HLA-A*24) |
| --- | --- | --- |
| 75 (ILDNVKNLL; listed as Homo sapiens) [compound 75] | +++ (50%-75% = +++) | – |
| 76 (ILLDESNFNHFL; listed as Homo sapiens) [compound 76] | +++ (50%-75% = +++) | – |
| 77 (IVLSTIASV; listed as Homo sapiens) [compound 77] | +++ (50%-75% = +++) | – |
| 78 (LLWGHPRVA; listed as Homo sapiens) [compound 78] | +++ (50%-75% = +++) | – |
| 79 (SLVPLQILL; listed as Homo sapiens) [compound 79] | ++++ (>= 75% = ++++) | – |
| 80 (TLDEYLTYL; listed as Homo sapiens) [compound 80] | +++ (50%-75% = +++) | – |
| 81 (VLFLGKLLV; listed as Homo sapiens) [compound 81] | ++ (20%-49% = ++) | – |
| 82 (VLLRVLIL; listed as Homo sapiens) [compound 82] | ++ (20%-49% = ++) | – |
| 83 (ELLEYLPQL; listed as Homo sapiens) [compound 83] | +++ (50%-75% = +++) | – |
| 84 (FLEEEITRV; listed as Homo sapiens) [compound 84] | +++ (50%-75% = +++) | – |
| 85 (STLDGSLHAV; listed as Homo sapiens) [compound 85] | +++ (50%-75% = +++) | – |
| 87 (YLTEVFLHVV; listed as Homo sapiens) [compound 87] | +++ (50%-75% = +++) | – |
| 88 (ILLNTEDLASL; listed as Homo sapiens) [compound 88] | +++ (50%-75% = +++) | – |
| 89 (YLVAHNLLL; listed as Homo sapiens) [compound 89] | +++ (50%-75% = +++) | – |
| 90 (GAVAEEVLSSI; listed as Homo sapiens) [compound 90] | + (<20% = +) | – |
| 91 (SSLEPQIQPV; listed as Homo sapiens) [compound 91] | + (<20% = +) | – |
| 92 (LLRGPPVARA; listed as Homo sapiens) [compound 92] | ++ (20%-49% = ++) | – |
| 93 (SLLTQPIFL; listed as Homo sapiens) [compound 93] | +++ (50%-75% = +++) | – |
| 97 (TYTFLKETF; listed as Homo sapiens) [compound 97] | – | ++++ (>= 75% = ++++) |
| 116 (AYVIAVHLF; listed as Homo sapiens) [compound 116] | – | ++++ (>= 75% = ++++) |
| 128 (VYPFDWQYI; listed as Homo sapiens) [compound 128] | – | ++++ (>= 75% = ++++) |
| 129 (KYIDYLMTW; listed as Homo sapiens) [compound 129] | – | ++++ (>= 75% = ++++) |
| 135 (VYEAMVPLF; listed as Homo sapiens) [compound 135] | – | ++++ (>= 75% = ++++) |
| 148 (SYGTVSQIF; listed as Homo sapiens) [compound 148] | – | ++++ (>= 75% = ++++) |
| 149 (SYGTVSQI; listed as Homo sapiens) [compound 149] | – | ++++ (>= 75% = ++++) |
| 153 (VYVPFGGKSMITF; listed as Homo sapiens) [compound 153] | – | ++++ (>= 75% = ++++) |
| 154 (VYGVPTPHF; listed as Homo sapiens) [compound 154] | – | ++++ (>= 75% = ++++) |

Results, then the substance that gave them:

| Peptide exchange (MHC class I binding score, peptide exchange yield) (HLA-A*02) | Peptide exchange (MHC class I binding score, peptide exchange yield) (HLA-A*24) | Substance |
| --- | --- | --- |
| – | ++++ (>= 75% = ++++) | 173 (QYLEKYYNL; listed as Homo sapiens) [compound 173] |
| – | ++++ (>= 75% = ++++) | 184 (IYSVGAFENF; listed as Homo sapiens) [compound 184] |
| – | ++++ (>= 75% = ++++) | 185 (QYLVHVNDL; listed as Homo sapiens) [compound 185] |
| – | ++++ (>= 75% = ++++) | 187 (AYAANVHYL; listed as Homo sapiens) [compound 187] |
| – | ++++ (>= 75% = ++++) | 196 (GYIRGSWQF; listed as Homo sapiens) [compound 196] |
| – | ++++ (>= 75% = ++++) | 197 (IFTDIFHYL; listed as Homo sapiens) [compound 197] |
| +++ (50%-75% = +++) | – | 321 (SLWFKPEEL; listed as Homo sapiens) [compound 321] |
| +++ (50%-75% = +++) | – | 323 (ILSVVNSQL; listed as Homo sapiens) [compound 323] |
| ++++ (>= 75% = ++++) | – | 324 (AIFDFCPSV; listed as Homo sapiens) [compound 324] |
| ++ (20%-49% = ++) | – | 325 (RLLPKVQEV; listed as Homo sapiens) [compound 325] |
| +++ (50%-75% = +++) | – | 326 (SLLPLVWKI; listed as Homo sapiens) [compound 326] |
| +++ (50%-75% = +++) | – | 327 (SIGDIFLKY; listed as Homo sapiens) [compound 327] |
| ++ (20%-49% = ++) | – | 328 (SVDSAPAAV; listed as Homo sapiens) [compound 328] |
| ++ (20%-49% = ++) | – | 329 (FAWEPSFRDQV; listed as Homo sapiens) [compound 329] |
| +++ (50%-75% = +++) | – | 330 (FLWPKEVEL; listed as Homo sapiens) [compound 330] |
| +++ (50%-75% = +++) | – | 333 (GTFLEGVAK; listed as Homo sapiens) [compound 333] |
| +++ (50%-75% = +++) | – | 334 (GRADALRVL; listed as Homo sapiens) [compound 334] |
| ++ (20%-49% = ++) | – | 335 (VLLAAGPSAA; listed as Homo sapiens) [compound 335] |
| ++ (20%-49% = ++) | – | 336 (GLMDGSPHFL; listed as Homo sapiens) [compound 336] |
| +++ (50%-75% = +++) | – | 337 (KVLGKIEKV; listed as Homo sapiens) [compound 337] |
| ++ (20%-49% = ++) | – | 338 (LLYDGKLSSA; listed as Homo sapiens) [compound 338] |
| ++ (20%-49% = ++) | – | 339 (VLGPGPPPL; listed as Homo sapiens) [compound 339] |
| ++ (20%-49% = ++) | – | 340 (SVAKTILKR; listed as Homo sapiens) [compound 340] |
